± gives the standard error. This sample holds only a part of the variants without activity.
B1: glmS ribozyme (parent)
chain: AUAAAAGCGCCAGAACUACAGAAAUGUAGUUGACGAGGAGGAGGUUUAUCGAAUUUUCGGCGGAUGCCUCCAAA

Assays:
Settings in all cases: with glucosamine-6-phosphate
glucosamine-6-phosphate [1] = variants of: B1; assay: self-cleavage kobs at 40 uM GlcN6P; higher = faster cleavage; RNA array
Outline: (§1)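 In situ transcription by E. coli RNA polymerase produced barcoded ribozyme variants on sequenced MiSeq chips, and a hybridised Cy3 probe tracked them at 37 °C. Glucosamine-6-phosphate was flowed in at 40 μM to 10 mM in HEPES/KCl/Mg(OAc)2 buffer. kcat and KM were taken from weighted Michaelis–Menten fits of kobs values from exponential decay fits.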

glucosamine-6-phosphate [2] = variants of: B1; assay: self-cleavage kobs at 640 uM GlcN6P; higher = faster cleavage; RNA array
Outline: as §1

glucosamine-6-phosphate [3] = variants of: B1; assay: self-cleavage kobs at 2500 uM GlcN6P; higher = faster cleavage; RNA array
Outline: as §1

glucosamine-6-phosphate [4] = variants of: B1; assay: self-cleavage kobs at 10000 uM GlcN6P; higher = faster cleavage; RNA array
Outline: as §1

glucosamine-6-phosphate [5] = variants of: B1; assay: self-cleavage kobs at 160 uM GlcN6P; higher = faster cleavage; RNA array
Outline: as §1

Variant | self-cleavage kobs at 40 uM GlcN6P (glucosamine-6-phosphate [1]) [s⁻¹] | self-cleavage kobs at 640 uM GlcN6P (glucosamine-6-phosphate [2]) [s⁻¹] | self-cleavage kobs at 2500 uM GlcN6P (glucosamine-6-phosphate [3]) [s⁻¹] | self-cleavage kobs at 10000 uM GlcN6P (glucosamine-6-phosphate [4]) [s⁻¹] | self-cleavage kobs at 160 uM GlcN6P (glucosamine-6-phosphate [5]) [s⁻¹]
A6U C11U G26U U56C | < 1e-05 | – | – | – | –
A6U G43A G59A G60U | < 1e-05 | – | – | – | –
G7C G41U C50G | < 1e-05 | – | – | – | –
A6U C11U G44U | < 1e-05 | < 1e-05 | < 1e-05 | < 1e-05 | –
A6U G62C | < 1e-05 | < 1e-05 | < 1e-05 | – | –
G7A U31C A48U | < 1e-05 | – | – | – | –
G7C C8G C50G U55A | 7.03e-05 ± 2.9e-05 | – | – | – | –
A6U U49G | < 1e-05 | < 1e-05 | < 1e-05 | – | < 1e-05
A6U G13U U47A | < 1e-05 | – | – | – | –
G7A A33C | < 1e-05 | < 1e-05 | – | < 1e-05 | < 1e-05
G7A A48C G59A A64G | < 1e-05 | – | – | < 1e-05 | –
G7C C16U U31A G41U | < 1e-05 | – | < 1e-05 | < 1e-05 | –
G7A G29A U55C G60U | < 1e-05 | – | < 1e-05 | – | –
G7A A42G C70U | < 1e-05 | – | < 1e-05 | – | –
G7C G9C A15U | < 1e-05 | – | – | < 1e-05 | –
G7C C11U A42G A64U | < 1e-05 | – | – | < 1e-05 | –
G7C C10A A52C | < 1e-05 | – | – | < 1e-05 | –
G7A A15G C61U C71U | < 1e-05 | – | < 1e-05 | – | < 1e-05
G7A G13C G38A | < 1e-05 | – | < 1e-05 | – | –
G7A G21U A33G C67U U69G | 8.76e-05 ± 2.2e-05 | – | – | 0.000115 ± 1.8e-05 | –
G7C C11A C50U U54C C58A C70A | 0.000371 ± 0.00013 | – | – | – | –
G7A A14G U49C | < 1e-05 | – | – | < 1e-05 | –
G7C C16A U47C A53U | < 1e-05 | – | – | < 1e-05 | –
G7C G59A | < 1e-05 | < 1e-05 | – | < 1e-05 | < 1e-05
G7C C16G C61A | < 1e-05 | < 1e-05 | < 1e-05 | < 1e-05 | –

Variant | self-cleavage kobs at 40 uM GlcN6P (glucosamine-6-phosphate [1]) [s⁻¹] | self-cleavage kobs at 640 uM GlcN6P (glucosamine-6-phosphate [2]) [s⁻¹] | self-cleavage kobs at 2500 uM GlcN6P (glucosamine-6-phosphate [3]) [s⁻¹] | self-cleavage kobs at 10000 uM GlcN6P (glucosamine-6-phosphate [4]) [s⁻¹] | self-cleavage kobs at 160 uM GlcN6P (glucosamine-6-phosphate [5]) [s⁻¹]
G7C G9U | < 1e-05 | < 1e-05 | – | < 1e-05 | –
A6U G29U C50U G66C | < 1e-05 | – | – | < 1e-05 | –
G7A G32U A39G C58A | < 1e-05 | – | – | < 1e-05 | –
A6U U31C G41A | < 1e-05 | – | – | < 1e-05 | –
A6U G44C | < 1e-05 | < 1e-05 | < 1e-05 | – | < 1e-05
A6U G32C G41U | < 1e-05 | – | – | – | –
G7C A15C | < 1e-05 | < 1e-05 | < 1e-05 | < 1e-05 | < 1e-05
G7A C8A A42C U69A | < 1e-05 | – | – | < 1e-05 | –
G7A G9U U31G G41A U65C | < 1e-05 | < 1e-05 | – | – | < 1e-05
G7A G40A A52C | < 1e-05 | < 1e-05 | – | < 1e-05 | –
G7A C50G C68A | 9.01e-05 ± 1.9e-05 | – | – | 0.000134 ± 2.4e-05 | –
G7A A14C G40A U49A C71U | < 1e-05 | – | – | – | –
G7C C10A | < 1e-05 | – | < 1e-05 | < 1e-05 | –
A6U G7U C58G U69G | 0.000141 ± 4.3e-05 | – | – | 0.000123 ± 3.5e-05 | –
A6U C58A G59C A64G | < 1e-05 | – | – | < 1e-05 | –
G7C A14G G38C U54G | < 1e-05 | – | – | – | –
G7A G40C | < 1e-05 | < 1e-05 | < 1e-05 | – | < 1e-05
A6U G40U U56A | < 1e-05 | < 1e-05 | – | – | –
G7A C50G C71U | 0.000141 ± 3.5e-05 | 0.000136 ± 3.9e-05 | 0.000177 ± 3.7e-05 | 9.72e-05 ± 2.2e-05 | 0.000482 ± 9.3e-05
G7C A39G C70U | < 1e-05 | – | – | < 1e-05 | –
G7C C11U | < 1e-05 | < 1e-05 | < 1e-05 | < 1e-05 | < 1e-05
G7C C11A | < 1e-05 | < 1e-05 | – | < 1e-05 | < 1e-05
G7A C16A U31C G32U G41C | < 1e-05 | – | – | – | –
G7A G59A | < 1e-05 | < 1e-05 | < 1e-05 | < 1e-05 | < 1e-05
G7A U30A | < 1e-05 | – | < 1e-05 | – | < 1e-05
